system: Escherichia coli TOP10; test: shrunken log2 fold change of peptide-encoding DNA abundance (4.5 h post-induction vs induction); higher = less antimicrobial activity (less host growth inhibition); conditions: time post-induction: 4.5 h; library: site-saturation at positions 5, 18, 19, 20
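Note: peptides expressed intracellularly from a pBAD plasmid library in pooled LB shake-flask culture, induced with 0.3% L-arabinose, DNA abundance read by NGS, three biological replicates, DESeq2 with apeglm shrinkage.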

Row | Sequence | shrunken log2 fold change
1 | RRIRMRPPRLPRPRPRPSSIPRP | -0.0701
2 | RRIRMRPPRLPRPRPRPSTQPRP | 0.148
3 | RRIRMRPPRLPRPRPRPSTSPRP | -0.0821
4 | RRIRMRPPRLPRPRPRPSYKPRP | -0.296
5 | RRIRMRPPRLPRPRPRPTADPRP | 2.84
6 | RRIRMRPPRLPRPRPRPTCEPRP | 0.745
7 | RRIRMRPPRLPRPRPRPTCGPRP | 0.942
8 | RRIRMRPPRLPRPRPRPTCMPRP | 0.262
9 | RRIRMRPPRLPRPRPRPTDPPRP | 0.00799
10 | RRIRMRPPRLPRPRPRPTDWPRP | 1.27
11 | RRIRMRPPRLPRPRPRPTEPPRP | 0.383
12 | RRIRMRPPRLPRPRPRPTEYPRP | -0.289
13 | RRIRMRPPRLPRPRPRPTFMPRP | 0.154
14 | RRIRMRPPRLPRPRPRPTGGPRP | 0.454
15 | RRIRMRPPRLPRPRPRPTGIPRP | -0.149
16 | RRIRMRPPRLPRPRPRPTHEPRP | 0.439
17 | RRIRMRPPRLPRPRPRPTHMPRP | 0.362
18 | RRIRMRPPRLPRPRPRPTIKPRP | 0.0703
19 | RRIRMRPPRLPRPRPRPTLDPRP | 1.35
20 | RRIRMRPPRLPRPRPRPTLTPRP | 1.4
21 | RRIRMRPPRLPRPRPRPTMMPRP | 0.168
22 | RRIRMRPPRLPRPRPRPTNEPRP | 0.282
23 | RRIRMRPPRLPRPRPRPTNGPRP | -0.0328
24 | RRIRMRPPRLPRPRPRPTNYPRP | -0.212
25 | RRIRMRPPRLPRPRPRPTPKPRP | 0.107

Row | Sequence | shrunken log2 fold change
26 | RRIRMRPPRLPRPRPRPTQFPRP | 0.178
27 | RRIRMRPPRLPRPRPRPTQGPRP | 0.805
28 | RRIRMRPPRLPRPRPRPTRQPRP | 0.886
29 | RRIRMRPPRLPRPRPRPTSHPRP | 0.0149
30 | RRIRMRPPRLPRPRPRPTTQPRP | 0.081
31 | RRIRMRPPRLPRPRPRPTTYPRP | 0.0427
32 | RRIRMRPPRLPRPRPRPVANPRP | 0.331
33 | RRIRMRPPRLPRPRPRPVASPRP | 0.58
34 | RRIRMRPPRLPRPRPRPVCHPRP | 0.224
35 | RRIRMRPPRLPRPRPRPVDIPRP | -0.0631
36 | RRIRMRPPRLPRPRPRPVDPPRP | 0.0473
37 | RRIRMRPPRLPRPRPRPVDWPRP | 1.21
38 | RRIRMRPPRLPRPRPRPVFCPRP | 0.388
39 | RRIRMRPPRLPRPRPRPVINPRP | -0.305
40 | RRIRMRPPRLPRPRPRPVKAPRP | -0.0481
41 | RRIRMRPPRLPRPRPRPVKVPRP | 0.0321
42 | RRIRMRPPRLPRPRPRPVLIPRP | -0.0938
43 | RRIRMRPPRLPRPRPRPVMEPRP | -0.00102
44 | RRIRMRPPRLPRPRPRPVMMPRP | 0.147
45 | RRIRMRPPRLPRPRPRPVMNPRP | 0.196
46 | RRIRMRPPRLPRPRPRPVPGPRP | 0.882
47 | RRIRMRPPRLPRPRPRPVPQPRP | 0.7
48 | RRIRMRPPRLPRPRPRPVRCPRP | 0.117
49 | RRIRMRPPRLPRPRPRPVSDPRP | 2.67
50 | RRIRMRPPRLPRPRPRPVSHPRP | 0.259

Row | Sequence | shrunken log2 fold change
51 | RRIRMRPPRLPRPRPRPVSIPRP | 0.0541
52 | RRIRMRPPRLPRPRPRPVTSPRP | -0.0914
53 | RRIRMRPPRLPRPRPRPVVAPRP | 0.533
54 | RRIRMRPPRLPRPRPRPVVFPRP | 2.6
55 | RRIRMRPPRLPRPRPRPVVNPRP | 0.0747
56 | RRIRMRPPRLPRPRPRPVWYPRP | -0.0263
57 | RRIRMRPPRLPRPRPRPVYMPRP | -0.214
58 | RRIRMRPPRLPRPRPRPVYYPRP | -0.123
59 | RRIRMRPPRLPRPRPRPWAFPRP | -0.121
60 | RRIRMRPPRLPRPRPRPWCIPRP | -0.315
61 | RRIRMRPPRLPRPRPRPWCKPRP | 0.0317
62 | RRIRMRPPRLPRPRPRPWCYPRP | -0.162
63 | RRIRMRPPRLPRPRPRPWEAPRP | -0.033
64 | RRIRMRPPRLPRPRPRPWECPRP | 1.1
65 | RRIRMRPPRLPRPRPRPWFFPRP | -0.0229
66 | RRIRMRPPRLPRPRPRPWFLPRP | 0.0242
67 | RRIRMRPPRLPRPRPRPWFYPRP | -0.418
68 | RRIRMRPPRLPRPRPRPWGIPRP | 0.0388
69 | RRIRMRPPRLPRPRPRPWGPPRP | 0.106
70 | RRIRMRPPRLPRPRPRPWIVPRP | 0.0842
71 | RRIRMRPPRLPRPRPRPWKMPRP | 0.0322
72 | RRIRMRPPRLPRPRPRPWMLPRP | 0.367
73 | RRIRMRPPRLPRPRPRPWNFPRP | -0.0756
74 | RRIRMRPPRLPRPRPRPWNHPRP | -0.0446
75 | RRIRMRPPRLPRPRPRPWNMPRP | -0.0747

Row | Sequence | shrunken log2 fold change
76 | RRIRMRPPRLPRPRPRPWNWPRP | 0.342
77 | RRIRMRPPRLPRPRPRPWQIPRP | -0.224
78 | RRIRMRPPRLPRPRPRPWREPRP | 0.189
79 | RRIRMRPPRLPRPRPRPWSQPRP | -0.189
80 | RRIRMRPPRLPRPRPRPWTIPRP | -0.0577
81 | RRIRMRPPRLPRPRPRPWTYPRP | -0.0551
82 | RRIRMRPPRLPRPRPRPWWMPRP | 0.0885
83 | RRIRMRPPRLPRPRPRPWYWPRP | -0.724
84 | RRIRMRPPRLPRPRPRPYAFPRP | -0.0624
85 | RRIRMRPPRLPRPRPRPYARPRP | -0.00176
86 | RRIRMRPPRLPRPRPRPYDAPRP | 0.11
87 | RRIRMRPPRLPRPRPRPYDEPRP | 0.0491
88 | RRIRMRPPRLPRPRPRPYDTPRP | -0.171
89 | RRIRMRPPRLPRPRPRPYEGPRP | -0.13
90 | RRIRMRPPRLPRPRPRPYEMPRP | 0.0693
91 | RRIRMRPPRLPRPRPRPYEPPRP | -0.352
92 | RRIRMRPPRLPRPRPRPYFIPRP | -0.413
93 | RRIRMRPPRLPRPRPRPYFMPRP | -0.898
94 | RRIRMRPPRLPRPRPRPYGGPRP | -1.22
95 | RRIRMRPPRLPRPRPRPYGPPRP | 0.0478
96 | RRIRMRPPRLPRPRPRPYHAPRP | -0.387
97 | RRIRMRPPRLPRPRPRPYHHPRP | -0.702
98 | RRIRMRPPRLPRPRPRPYHPPRP | -0.423
99 | RRIRMRPPRLPRPRPRPYHQPRP | -0.297
100 | RRIRMRPPRLPRPRPRPYHVPRP | -0.065

Row | Sequence | shrunken log2 fold change
101 | RRIRMRPPRLPRPRPRPYIEPRP | -0.201
102 | RRIRMRPPRLPRPRPRPYKFPRP | 0.0435
103 | RRIRMRPPRLPRPRPRPYKVPRP | -0.0176
104 | RRIRMRPPRLPRPRPRPYLTPRP | -0.268
105 | RRIRMRPPRLPRPRPRPYMTPRP | -0.178
106 | RRIRMRPPRLPRPRPRPYNVPRP | -0.3
107 | RRIRMRPPRLPRPRPRPYPPPRP | 0.133
108 | RRIRMRPPRLPRPRPRPYQDPRP | 0.0259
109 | RRIRMRPPRLPRPRPRPYQEPRP | -0.0194
110 | RRIRMRPPRLPRPRPRPYQYPRP | -0.0219
111 | RRIRMRPPRLPRPRPRPYVAPRP | -0.445
112 | RRIRMRPPRLPRPRPRPYVNPRP | -0.284
113 | RRIRMRPPRLPRPRPRPYVQPRP | 0.056
114 | RRIRMRPPRLPRPRPRPYVSPRP | 0.013
115 | RRIRNRPPRLPRPRPRPAAEPRP | 0.232
116 | RRIRNRPPRLPRPRPRPAAIPRP | 1.95
117 | RRIRNRPPRLPRPRPRPAAKPRP | -0.0209
118 | RRIRNRPPRLPRPRPRPAFFPRP | 0.0459
119 | RRIRNRPPRLPRPRPRPAFHPRP | -0.436
120 | RRIRNRPPRLPRPRPRPAFMPRP | 0.0417
121 | RRIRNRPPRLPRPRPRPAGPPRP | -0.0019
122 | RRIRNRPPRLPRPRPRPAGQPRP | 0.0891
123 | RRIRNRPPRLPRPRPRPAGTPRP | 0.0756
124 | RRIRNRPPRLPRPRPRPAIDPRP | -0.0478
125 | RRIRNRPPRLPRPRPRPAIEPRP | 0.00973

Row | Sequence | shrunken log2 fold change
126 | RRIRNRPPRLPRPRPRPAIFPRP | -0.424
127 | RRIRNRPPRLPRPRPRPAIYPRP | -0.425
128 | RRIRNRPPRLPRPRPRPAKMPRP | -0.0794
129 | RRIRNRPPRLPRPRPRPALHPRP | -0.296
130 | RRIRNRPPRLPRPRPRPALNPRP | 0.0657
131 | RRIRNRPPRLPRPRPRPAMCPRP | -0.199
132 | RRIRNRPPRLPRPRPRPAMLPRP | -0.145
133 | RRIRNRPPRLPRPRPRPAMWPRP | -0.0838
134 | RRIRNRPPRLPRPRPRPANAPRP | 0.259
135 | RRIRNRPPRLPRPRPRPANCPRP | -0.185
136 | RRIRNRPPRLPRPRPRPANVPRP | 0.0585
137 | RRIRNRPPRLPRPRPRPAPNPRP | -0.0796
138 | RRIRNRPPRLPRPRPRPAQAPRP | -0.0253
139 | RRIRNRPPRLPRPRPRPAQIPRP | 0.603
140 | RRIRNRPPRLPRPRPRPARLPRP | 0.184
141 | RRIRNRPPRLPRPRPRPASAPRP | 0.0499
142 | RRIRNRPPRLPRPRPRPASSPRP | -0.317
143 | RRIRNRPPRLPRPRPRPASVPRP | -0.0792
144 | RRIRNRPPRLPRPRPRPATYPRP | -1.05
145 | RRIRNRPPRLPRPRPRPAVLPRP | 0.00424
146 | RRIRNRPPRLPRPRPRPAWFPRP | 0.294
147 | RRIRNRPPRLPRPRPRPAWPPRP | 0.408
148 | RRIRNRPPRLPRPRPRPAYHPRP | -0.385
149 | RRIRNRPPRLPRPRPRPCAGPRP | -0.123
150 | RRIRNRPPRLPRPRPRPCCKPRP | -0.274
